Results: the DeepSol protein solubility set

Experiment: soluble on expression in E. coli; label from the status in PepcDB or PDB records

Soluble on expression in E. coli, not soluble:
MGSDKIHHHHHHMPSPIDLHSHSTVSDGLLAPEALVAHAAEQGVKVLSLTDHDDTSGLAPAASAAAGHGMEFINGVEISVTWRRKTIHVVGLRVDPDHGPLREGLEKIRAGRHLRAENIAASLEKFGIKGSLEGAYAHARQGIIGRAHFARYLIDQGYASNMKAIFKRYLVKGKPGYVEHHWATLEEVVAWINGSGGVAVLAHPGRYDIGRSNMLLLLEEFRNLGGTAIEVVTGSHNADQFQEYAKLAHMFGLKSSMGSDYHGPGHGNIEMGRLPDLPRGCIPVWQDWPEIRSLNN, MGSDKIHHHHHHMPTGNELPINEGASALQMANTIFGPGVTVNTASYTGWSQSSGIYTNGDSVAPGVTPSDTGVILSTGRASHITQSNGDPNRSDSTSTNTPGPSNDPDFNAIAGFVGSNDASFLEVNFTPTTDVLTMQFTFASEEYPEYTGSVFNDIFGVWVNGALVASPVVNVTQINSVNQSENATLFNNNTDDDYNTEMDGFTVTLTLVMPVNINQPNDIKIGVADVADSAYDSNVLIAAGSIQGEFVAESDSITHLEGLTSVLDVLANDPTSGGIAFITHINGVEVNPGDSVTLSDGTIVTLLPSGELQIDPPATQTGLTSSETIHFTYTVDNGSGITDTAFVTVTAIPCFARGTMILTAHGEKPVETLVPGDRIATRDNGLQEIRWIGTRKVAAEGRFAPIAIEAGTFGMHRRLVVSPQHRVMLTHWMAEVMFGEDEVLVAAKDLVNDCSVRVLGPGDFDDGEVEYFHLLFDQHQIIFSDGLATESFLPGPTVMNDLDAAVQEEVLALFPDIDPDTKDGYGPAARLPLRAFEARAMLA, MGSDKIHHHHHHMQDVTGRALVMMESATQGQQGIAMDLVQEAFIALHKSYADRSTEEWYPLFYTILNNKLQDWRRKEARRANPFSFFKKVSLDNDDEEIIDIVDEKAINPADFLDQAVTIEEIQEAIAKLPVRQQQAFMLRAWEGFDTHTTAQIMNCTEGSVKTHYHRAIQGLREYLAHLNPMGGSNES, MGSDKIHHHHHHMQEIELKFLVPEPRLKGLMRQAKIKSSQVTQLAAHYYDTPDQQLAQAGIGLRIRQEGNAWVQTIKASGDGIAARLEHNLTLDNEQVQAMLDNNELLPDLTIYKDTPIAPALADFKLKKLAKQLTRLYVTDVERTTRLLIKDTGDEVVNSIEMAYDYGEIIHGTDDTQRDVIQEIEFELISGELDFLFSTAKTWCQRYKLCLSTVTKAERGGRLIKGQSHTPATAADLSELNIDKKIGMPAFLRAVVHNCLLQILPNSSAIVAGSKDNEHLLQLSIGIERLHTVLQAFDSFSDEINPDWSAILQQTATLLTEYRKLAYLSTHIEPRLQKDGAPIVDWTADIDALKITPIAAISTNHFQIMLLELIAFTMSDPSLEPQTDKLAINKLEKILVKYHEKLLKAEQYLEDRYDESDSELENESIIKALHNLHDHLKDLRYISELVAPLYGKKKTKRWLKRTVKAQKTLGQQLNMSDYQQYYQSKASSDFAALYAAGWLNAVLIPMEKATEKRLDKFYACSVFW, MGSDKIHHHHHHMQEMILLQQKVDETIRALGGYFRPLSGLARLIEEVGEVGEALETGDELSFQAELVDVLMISTCLANQYVTDLAQQHQQLGTMEDEGQGSFYRLVHEAGQVARVMNGYEGDKPPKQTEDIIPIGMSLARLQRELFRLVRPHGINLLQEIDRTNEKNLNRDRKRFALTRDPVTEATIDHFRSATGNTERLWGAPAYESDLALEAHIQAALPSLRRFLRCARIEGIAGFVIEAPMERTDSLRSVKDQADEIGRIVKEQTPLSFKEAPYRIDVYAPQLGPVSPYHAEDDHRMFLVLHVDE, MGSDKIHHHHHHMQILKTSDVPTGIVLLDRRLDGGLPAGSFVCVYANPLAMPEAFLYQFATVLKTYYFTTSRPAKFVKQDMEKLRLDTSFVTFVDVYEQYYLNEYGQFIVEDRYRDKEIFDYVDDRLSRIAEEESGEYNVIIDSLSFFLNLNTDWGLKDWLINKLYTLAKEKGVVVYCHLIKNLHPVDVVNKVLDISDVVFDIEVERVGERLVSKFAVPKLRGKRPVTEYFRFYVEEGIQVDTSRDIA, MGSDKIHHHHHHMQKPCIATPFSSYQETVPSLLQAVGAPGLLSRQSCILIKPNLVNASPPPVTLPVAACEALVAACRRWSKARIVIAEGSGDRDLSTGEIFQRLGYERLARRYDVDLVDLNNAELVELQNPLCEVFPTFMMPRMVMDSFVISAAVLKAHSLAEVTLSMKNMIGVAPPAYYQQGGHWKKSAFHAQMHRSIFELNRYRKPDLAFIDASVGLAEYHLGGPTCEPPVDKLLAGFDPVAVDAAGSELLGIPWQQVEHIRLADGLLGRAGK, MGSDKIHHHHHHMQNPQQVSASKTLSPILVQGAMDIEVETLIAALGKVTVNTFGSWTFWEGELSGHPVVVSRTEIGLANAAAATTLAIAHYRPKLIINQGTAGGHDPKLYRGDIVIGETSFNMGSYLTKLTPKGQGIHPTQWQNFDMTMYLRENGEVVKHNHFKADPALVEVALSQAHHYTKGNVVKGIIGTGDEWNRELDRINWLHHTFGTAVEEMETSAAALVAEAYKLPFVSIRILSNTDQHDQDCDPQTAVDCQQFVLNIIQQLINTTK, MGSDKIHHHHHHMQREEWFHRAVIYQVDSSLFYDANGDGFGDLAGIRQKLHYIRSLGATVLWLTPFYLTPLQDDGYDISDHLQPDPRFGTIADVIELIARARELGLRVIVELVIQHTSAQHPWFQAARRDPRSPWRPYYLWADRPPENDDPPMFPGVEESVWRWDEQAGQYYRHMFYHHEPDLNLAHPPVIAEIENIITFWLQAGVSGFRLDAASHLVKQAGKGDETRGYPLLTHLRQVVQRLNPDAILLGEVDVAVEDYRHYFGQGDRLQMVLNFWLNKYLYLSLAQQRAAPVVKALQAMVTPPDGCCFVNWLRNHDELDLEGIGERNKRQVIRTFAPDKSMSVYQRGVRRRLAPMLDGDTRRIALAHAILLALPGVPVMRYGDEIGMGDDLSLPERYAVRTPMQWSAAANAGFSRAARDDLPVKPVASGRFRYQRINVETALRHPRSLLHRVRNMVLARTEYTEPGSLPFTLLTLKPDAVLGLLYRSESREVLMLANCSQQAVEVLLPPLAEGYWSPILEDKLYQDGLHGGKDARLALSGYGYRWFSRSLS, MGSDKIHHHHHHMQRHLVDEFWCINVDSTAWSKVLHRGTRREFKKGEQIVSAGELVTQLRYLESGSVCMKRTTLDGNEKILMHIERSSLFCEVPFFTGDEIHSSFNCHRDAVVYCFSKEVVDDILEMYPCIAKDIIRTLSMKVSVLSNQIASLGLDTLEQRIAKFILLRYNLMNLADADLMTLGTLRMKDVASILGVHRATLYRALKTMEKMRLIKLLNENRLQVLNIEALAALANH, MGSDKIHHHHHHMQSTALRYFLEVARCGSISEASVRLNVASSAVSRQISKLERELDALLFERQARGMMLSEAGIRLAAYARKSQLEAEQVVLEITELQGLQRGHVRIACSEGFALDFLPQCIARFRRLYQGIHFSMEVCAPAQATERVRSGDADLCLTFSLTPQNEIKVEHIHSGAICAVVSHNHPLASRKEVALAELQPYAIALTNTDTTLRQLFDICCGVQGLMFDPVLTSNYIGSLLRFVSEEGGISLSSEMTLDKRVHEKQLKSLPISDEGMKARRIELQSMAGRNLPAAVAAFRDFLIEELAKT, MGSDKIHHHHHHMQTFPAYSSMQLSLSPTQCQPLKIIALGDSLVYGFGDPDKGGWVEQLRRWWMLPDSSGHVLYNLGVRGDRTQQVAQRLEVEFRHRGELRNRVPDLIILSVGVNDSARLTRLNGRNCTDFALFESEIASLLDQAQQLCPVLFVGMVPVDEAKMPFLNCFYFNHADQYRYKEATRIACNQRQIPYLDIFDQWMARGDAWRNKRLTEDGLHPNTLGYQSLLEDVIHWEHLAGYHTRPDYQLK, MGSDKIHHHHHHMQTVQALLTAAKVDSAESPYDTIHIKVLYPAKNTDSNLEKNWGMLPVDAAQAPFPVVIFFNGFNCDAQKYQWLGIELAQTGLVVVMFNWVGESLPGLVSFTPGFEIEKRKREFYGTVPTASALPVILTKLAQLQSAGILSGTLDLEKIILGGHSEGGRVAMENANPNFFPQVVASFAYGSHTAGAVMLGYKPNTILPLPDTLPRLVIGGTHDGVIANSSAHFGLNTKDATTPVIRTFQEAIMGGRENSYLLLLRGANHFSIVDIVDSTLALPFKDIPATQPQEHFRLLLATIIHLFIDAHVRHQPEAFQKLEQLLIVTNPLIQSFERK
